22 molecules from US20160031942A1 (LONDON HEALTH SCIENCES CENTRE RESEARCH, published 2016) can be followed below.

Experiment [1] concerns the target T1, Recombinant protein RHAMM-CT (truncated RHAMM, carboxy terminus containing the HA binding domain, amino acids … (UniProt Q00547 706-766)).
T1 chain: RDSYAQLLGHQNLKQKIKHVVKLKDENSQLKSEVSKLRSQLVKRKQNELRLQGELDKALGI
The experiment is described as follows: SPR. On the technique in general: In SPR one partner is held on a chip, and binding of the other changes the refractive index at the surface.

The target of experiment [2] is T1, Recombinant protein RHAMM-CT (truncated …). The experiment is described as follows: SPR; RHAMM 750 nM.
Experiment [3] addresses T2, Recombinant protein RHAMM-CT (truncated RHAMM, carboxy terminus containing the HA binding domain, amino acids … (Mus musculus (Mouse), UniProt Q00547 706-766)).
T2 construct: Expressed in E. coli BL21 from pPAL7-RHAMM as eXact-tagged protein and purified on Profinity eXact resin (fluoride elution); M.W. 7.1 kDa, pI 10.1; also called recombinant RHAMM
T2 sequence: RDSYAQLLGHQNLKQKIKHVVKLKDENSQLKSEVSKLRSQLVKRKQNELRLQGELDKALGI
The experiment is described as follows: SPR (GWC SPRimager II), thiol-containing peptide immobilised on maleimide chip, RHAMM injected at 500, 750, 1000 nM, 1:1 Langmuir fit. The method, then:
After peptide screening, GWC SPRimager®II system was used to determine binding kinetic constants. Thiol-containing peptides at 1 nM concentration in milliQ water were immobilized on a maleimide-functionalized gold-plated chip for 3 hours. Excess peptides were removed by washing with milliQ water. For binding studies, a series of concentrations (500 nM, 750 nM, and 1000 nM) of RHAMM were injected over the immobilized peptides. After a 15 min dissociation phase, the sensor chip surface was regenerated for the next peptide sample injection, via treatment with two 10 min pulse injections of regenerating buffer (2 M NaCl in HBS-EP, pH 7.4) at […]. Baseline returned to the initial value after the regeneration step, confirming the removal of all bound analytes. Data were analyzed and the corresponding dissociation constants (KD) were obtained via non-linear regression fitting to a Langmuir binding model. In all experiments, reference subtraction was performed using data obtained from reference plate (no peptide) and peptide functionalized plate.

The target in experiment [4] is T1, Recombinant protein RHAMM-CT (truncated …). The experiment is described as follows: SPR.
The target of experiment [5] is T2, Recombinant protein RHAMM-CT (truncated …). The experiment is described as follows: SPR-based screening (FIG. 3B legend). As for the experimental part:
ProteON XPR36 system was used for the selection and ranking of different tubulin derived peptides against RHAMM. For immobilization of RHAMM, the ProteON GLC sensor chip surfaces were activated by amine coupling using 100 mM EDAC and 24 mM sulfo-NHS. RHAMM (30 μg/mL in sodium bicarbonate buffer, pH 9.7) was injected at a flow a rate of 30 μl/min. A buffer sample was injected on a different sensor plate for use as a reference. Ethanolamine HCl (1M, pH 8.5) was then injected to deactivate any remaining surface groups. Peptides (10 μM in PBS-T, 2% DMSO) were injected to a RHAMM functionalized surface at 50 μL/min for 3 minutes followed by a 10 minute dissociation (i.e. injection of PBS-T buffer) period. The surfaces were regenerated using two injections of 30 μL of 1M NaCl prior to the injection of the next peptide. In all experiments, reference subtraction was performed using data obtained from reference plate (No RHAMM) and RHAMM functionalized plate.
After immobilization of RHAMM on the SPR sensor chip, injection of a series of tubulin derived peptides was carried out. Association of the peptides with RHAMM proceeded for 3 minutes and the dissociation in analyte free buffer was carried out for 10 minutes. […] For each peptide injection, control sensograms (no immobilized RHAMM and buffer injection) were subtracted from the test sensograms, and the chip surface was regenerated prior to the next peptide injection in order to remove any remaining bound peptides.

The target in experiment [6] is T1, Recombinant protein RHAMM-CT (truncated …). The experiment is described as follows: SPR; average.
The target is the same in experiment [7]. The experiment is described as follows: SPR; RHAMM 500 nM.
Experiment [8] has the same target. The experiment is described as follows: SPR; RHAMM 1000 nM.
The target in experiment [9] is T3, RHAMM (Receptor for Hyaluronic Acid Mediated Motility, CD168) expressed on human cancer cells (human, UniProt O75330 1-724).
T3 sequence (looked up): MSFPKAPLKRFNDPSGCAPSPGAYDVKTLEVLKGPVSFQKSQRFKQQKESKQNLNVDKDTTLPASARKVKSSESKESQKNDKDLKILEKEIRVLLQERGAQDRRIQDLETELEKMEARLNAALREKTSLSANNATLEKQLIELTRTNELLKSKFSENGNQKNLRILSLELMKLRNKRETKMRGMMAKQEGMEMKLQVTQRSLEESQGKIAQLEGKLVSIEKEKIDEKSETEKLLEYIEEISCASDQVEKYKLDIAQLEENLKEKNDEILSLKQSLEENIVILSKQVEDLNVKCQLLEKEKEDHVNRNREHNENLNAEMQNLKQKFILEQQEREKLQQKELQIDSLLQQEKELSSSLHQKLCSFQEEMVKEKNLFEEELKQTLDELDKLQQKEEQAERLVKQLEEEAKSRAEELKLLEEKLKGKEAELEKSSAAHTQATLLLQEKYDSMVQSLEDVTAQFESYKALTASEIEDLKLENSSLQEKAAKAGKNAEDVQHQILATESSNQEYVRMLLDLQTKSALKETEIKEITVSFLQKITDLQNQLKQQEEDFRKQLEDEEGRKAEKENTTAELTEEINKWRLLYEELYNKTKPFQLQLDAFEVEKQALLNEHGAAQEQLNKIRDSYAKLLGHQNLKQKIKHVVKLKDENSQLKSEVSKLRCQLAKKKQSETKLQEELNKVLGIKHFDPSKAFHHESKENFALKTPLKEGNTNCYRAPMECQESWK
The experiment is described as follows: cell-based or functional assay.

Experiment [10] concerns the target T2, Recombinant protein RHAMM-CT (truncated …). The experiment is described as follows: ELISA, fluorescein-labelled peptide on immobilised RHAMM. As for the experimental part:
ELISA was carried out to test the ability of FITC-labelled tubulin-derived peptides compete with HA for binding site with RHAMM. Recombinant RHAMM (100 μL, 10 μg/mL in 0.05M PBS, pH=9) was immobilized on 96-well ELISA plates (final concentration of 1 μg/well) and incubated overnight at 4° C. resulting in final amount of protein 1 μg/well. Plates were washed three times with (0.05%) PBS-Tween-20 buffer (200 μL/well), washed with blocking buffer (5% 200 μL/well, PBS-Tween-20 per well), and incubated for 1 hour at room temperature. Following three washes as described above, FITC-labeled tubulin derived peptides (final concentration of 1 μg/mL) and HA (100 μL/well, M.W. 220 kDa, 10 μg/mL in PBS, serial dilutions have been made for HA=1:1, 1:2, 1:4, 1:8, 1:16) were added to plates and incubated overnight at 4° C. Plates were washed as described above, and absorbance was measured at 485/535 nm.
A competitive ELISA was done to determine the selectivity of the peptides to the HA binding domain of RHAMM. In this assay, fluorescein-labelled peptides were used and the effectiveness of unlabelled HA to block the binding of peptides to RHAMM was evaluated. Fluorescein-labelled peptides SEQ ID NOs: 1, 3, 9, 11, 12 and 14, corresponding to peptides 1c, 3c, 9c, 11c, 12c and 14c in FIG. 2B (SEQ ID NOs: 25, 27, 29, 31, 33 and 35) were added to ELISA plates containing immobilized RHAMM, followed by the addition of varying concentration of HA, which is the natural ligand of RHAMM. A decrease in observed fluorescence is seen as HA displaces the fluorescein-labelled peptides if they compete for the same binding site.
(In general: An ELISA detects its analyte on a solid surface through an enzyme-linked reagent.)

Square brackets hold non-standard residues; d marks the D form. Ends that are not written are not given here. * marks the point of attachment. FITC = O=C1OC2(c3ccc(O)cc3Oc3cc(O)ccc32)c2ccc(NC(=S)*)cc21; Ahx = NCCCCCC(=O)O Where only a bound is given, the exact number is not on record here.

B1: 13 (peptide)
chain: SNMNDLVSEYQQ
Broadly, the Kd is a measure of binding affinity in units of concentration. With B1, in [1], the Kd was < 1000 nM.

B2: peptide 9b (SEQ ID NO: 28), SEQ ID NO: 9 with N-acetyl cysteine modified N-terminus (peptide)
peptide: Ac-C[Ahx]EEDFGEEAEEEA-NH2
Regarding B2, the Kd came to 33.8 nM in experiment [2] and 32 nM in [3].

B3: 6 (peptide)
chain: LEKDYEEVGVDS
Turning to B3, the Kd in experiment [4] is 330 nM.

B4: SEQ ID NO 4 (tubulin-derived peptide containing the DEXEEZ motif) (peptide)
peptide: IDSYEDEDEGEE
In the case of B4, the equilibrium dissociation constant (Kd) in experiment [4] was < 1000 nM.

B5: peptide 11a (SEQ ID NO: 11), unmodified tubulin-derived peptide, beta-IV CTT (peptide)
peptide: GEFEEEAEEEVA-NH2
notes: Synthetic 12-mer made on Rink amide MBHA resin
For B5, the Kd came out at 130 nM in [1]; 130 nM in experiment [6]; 126 nM in experiment [7]; 145 nM in [2]; 120 nM in experiment [8]. Also, the binding result in experiment [5] was “binds”.

B6: SEQ ID NO 2 (tubulin-derived peptide containing the DEXEEZ motif) (peptide)
peptide: DSADGEDEGEEY
As to B6, the dissociation constant (Kd) in experiment [4] is < 1000 nM.

B7: peptide 1c (SEQ ID NO: 25), fluorescein-conjugated SEQ ID NO: 1 (peptide)
peptide: {FITC-Ahx}-VEGEGEEEGEEY-NH2
On to B7, for which the “reduction in cellular fluorescence (uptake in MDA-MB-231 cells) when cells are blocked with anti-RHAMM mAb” value (“reduction in cellular fluorescence” for short) in experiment [9] is ~85%. Moreover, in [10], the binding result is given as “binds”.

B8: 17 (peptide)
chain: DNPDEMDTSREI
Consider B8, for which the dissociation constant Kd in experiment [1] was < 1000 nM.

B9: 16 (peptide)
chain: VQQLIDEYHAAT
As to B9, in experiment [1], the equilibrium dissociation constant (Kd) is < 1000 nM.

B10: 5 (peptide)
chain: DSFEEENEGEEF
Take B10: in experiment [4], the equilibrium dissociation constant (Kd) was < 1000 nM.

B11: peptide 9a (SEQ ID NO: 9), unmodified tubulin-derived peptide, beta-Ia CTT (peptide)
peptide: EEDFGEEAEEEA-NH2
notes: as for B5
On to B11, for which the dissociation constant Kd in experiment [4] came out at 32 nM. Also, the binding result in [5] is listed as “binds”.

B12: peptide 14b (SEQ ID NO: 34), SEQ ID NO: 14 with N-acetyl cysteine modified N-terminus (peptide)
peptide: Ac-C[Ahx]FTEAESNMNDLV-NH2
Turning to B12, the Kd was 29 nM in experiment [2], 31.9 nM in experiment [8] and 30 nM in experiment [3].

B13: peptide 12a (SEQ ID NO: 12), unmodified tubulin-derived peptide (peptide)
peptide: EAFEDEEEEIDG-NH2
notes: as for B5
B13: the Kd in experiment [1] came to 211 nM; in [6], 211 nM; in [7], 217 nM; in [2] it was 215 nM; in experiment [8], 201 nM. Further, the binding result in experiment [5] is “binds”.

B14: 15 (peptide)
chain: RPDYISWGTQEQ
For the molecule B14, in [1], the dissociation constant (Kd) is < 1000 nM.

B15: peptide 1b (SEQ ID NO: 24), SEQ ID NO: 1 with N-acetyl cysteine modified N-terminus (peptide)
peptide: Ac-C[Ahx]VEGEGEEEGEEY-NH2
Regarding B15, in [3], the Kd came out at 24 nM.

B16: 8 (peptide)
chain: FVHWYVGEGMEE
As for B16, the Kd in experiment [4] is 176 nM.

B17: 7 (peptide)
chain: GEFSEAREDMAA
For B17, in experiment [4], the Kd was 180 nM.

B18: peptide 9c (SEQ ID NO: 29), fluorescein-conjugated SEQ ID NO: 9 (peptide)
peptide: {FITC}-[Ahx]EEDFGEEAEEEA-NH2
notes: also called fluorescein-conjugated HA mimetic
Take B18: in experiment [9], the “reduction in cellular fluorescence” value is ~76%. Further, in experiment [10], the binding result is “binds”.

B19: SEQ ID NO 10 (tubulin-derived peptide containing the EEXEDZ motif) (peptide)
peptide: GEFEEEEGEDEA
As to B19, in experiment [1], the Kd is < 1000 nM.

B20: peptide 3a (SEQ ID NO: 3), unmodified tubulin-derived peptide, alpha-IIIc CTT (peptide)
peptide: SVEAEAEEGEEY-NH2
notes: as for B5
Regarding B20, the Kd worked out at 331 nM in [4]; 331 nM in [6]; 310 nM in experiment [7]; 325 nM in [2]; 358 nM in experiment [8]. Further, in experiment [5], the binding result was “binds”.

B21: peptide 14c (SEQ ID NO: 35), fluorescein-conjugated SEQ ID NO: 14 (peptide)
peptide: {FITC-Ahx}-FTEAESNMNDLV-NH2
Consider B21, for which the “reduction in cellular fluorescence” value in experiment [9] was ~65%. The binding result in [10] is listed as “binds”.

B22: peptide 1a (SEQ ID NO: 1), unmodified tubulin-derived peptide, alpha-Ia CTT (peptide)
peptide: VEGEGEEEGEEY-NH2
notes: Synthetic 12-mer made on Rink amide MBHA resin; also called ala-CTT
As for B22, in experiment [4], the Kd was 24 nM. Besides, the binding result in [5] was “binds”.
